Two substances from paper PMC4599966 can be followed below.

The target of one assay is LC3B (two-hybrid bait) (UniProt Q9GZQ8). In words: mammalian 2-hybrid assay. The conditions noted are these: CHOK.1 cells, LC3B as bait, read off a plot.
A further assay addresses LC3C (two-hybrid bait) (UniProt Q9BXW4). The assay can be described thus: mammalian 2-hybrid assay. The note with it: CHOK.1 cells; LC3C as bait; parent: est. 79; read off a plot.
For assay [1], the target named is TAX1BP1 zinc finger domain (human) (UniProt Q86VP1). The assay can be described thus: NMR titration; 1H/15N HSQC of 15N-labelled TAX1BP1 zinc fingers (P0 150 μM) with increasing unlabelled ubiquitin, and the reciprocal titration of 15N-labelled ubiquitin; PBS, 10 mM β-mercaptoethanol, 20°C; shift changes of peaks of each zinc finger fitted to a single site-binding model.

Sequence of UniProt Q9BXW4 (Q9BXW4 whole entry, the tested form may be a part): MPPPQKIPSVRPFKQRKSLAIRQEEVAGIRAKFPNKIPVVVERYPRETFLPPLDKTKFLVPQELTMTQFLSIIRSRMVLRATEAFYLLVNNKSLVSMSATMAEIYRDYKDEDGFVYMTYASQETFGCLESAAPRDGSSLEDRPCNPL

Turning to “TAX1BP1 full-length wild-type (two-hybrid prey) (from UniProt Q86VP1) V144S”, the response with LC3B (two-hybrid bait) (parent: est. 85) turned out to be 20; in the assay with LC3B (two-hybrid bait) (parent: est. 98), 27; in the assay with LC3C (two-hybrid bait), 34.
As to “mono-ubiquitin (from UniProt P0CG48 1-76) (natural protein)”, in assay [1], the KD, site ZF1 (N-terminal module) amounted to 70 µM and the KD, site ZF2 (C-terminal module) came to 7 µM.
